Reference: publication doi:10.1101/2021.02.16.431378
Where “and” joins values, the source holds several entries; their conditions need not be identical. Identical values can stand only once. One block for each molecule: values may come before it.

How the values were obtained:
[1] = target: N-terminally 6xHis tagged HU-A (histidine-tagged E. coli HU-A) (E. coli K-12 sub-strain MG1655) (UniProt P0ACF0); test: SEC
[2] = target: N-terminally 6xHis tagged HU-A (histidine-tagged E. coli HU-A) (E. coli K-12 sub-strain MG1655) (UniProt P0ACF0); test: cross-linking
[3] = target: N-terminally 6xHis tagged HU-A (histidine-tagged E. coli HU-A) (E. coli K-12 sub-strain MG1655) (UniProt P0ACF0); test: SEC; remark: listed apart in the source
[4] = target: N-terminally 6xHis-tagged HU-B co-expressed from pET-Duet-1 (E. coli K-12 sub-strain MG1655) (UniProt P0ACF4); test: SEC
[5] = target: N-terminally 6xHis tagged HU-B (histidine-tagged E. coli HU-B) (E. coli K-12 sub-strain MG1655) (UniProt P0ACF4); test: SEC
[6] = target: N-terminally 6xHis tagged HU-B (histidine-tagged E. coli HU-B) (E. coli K-12 sub-strain MG1655) (UniProt P0ACF4); test: cross-linking
[7] = target: N-terminally 6xHis tagged HU-B (histidine-tagged E. coli HU-B) (E. coli K-12 sub-strain MG1655) (UniProt P0ACF4); test: cross-linking; remark: listed apart in the source
[8] = target: N-terminally 6xHis tagged HU-B (histidine-tagged E. coli HU-B) (E. coli K-12 sub-strain MG1655) (UniProt P0ACF4); test: cross-linking; remark: listed apart in the source
[9] = target: N-terminally 6xHis tagged HU-B (histidine-tagged E. coli HU-B) (E. coli K-12 sub-strain MG1655) (UniProt P0ACF4); test: SEC; remark: listed apart in the source
[10] = target: N-terminally 6xHis-tagged HU-B co-expressed from pET-Duet-1 (E. coli K-12 sub-strain MG1655) (UniProt P0ACF4); test: pull-down
[11] = target: T1, 6xHis-HU-B (Escherichia coli K-12 MG1655, UniProt P0ACF4 1-90); test: EMSA
T1 sequence: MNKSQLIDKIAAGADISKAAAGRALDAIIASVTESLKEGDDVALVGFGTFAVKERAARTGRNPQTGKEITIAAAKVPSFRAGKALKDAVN

[12] = target: 6xHis-HU-A (Escherichia coli K-12 MG1655, UniProt P0ACF0 1-90); test: EMSA
[13] = target: T2, TmRITC-labelled histidine-tagged HU-B, P0ACF4; test: FRET or BRET
T2 chain: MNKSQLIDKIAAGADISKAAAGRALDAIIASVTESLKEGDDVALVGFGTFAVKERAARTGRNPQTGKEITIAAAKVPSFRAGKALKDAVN

Molecule: N-terminally 6xHis tagged HU-A (histidine-tagged E. coli HU-A) (from UniProt P0ACF0 1-90) (natural protein)
stoichiometry N [1]: 2 | stoichiometry N [2]: 2 | stoichiometry N [3]: 2

Molecule: N-terminally 6xHis tagged HU-B (histidine-tagged E. coli HU-B) (from UniProt P0ACF4 1-90) (natural protein)
stoichiometry N [5]: 2 | stoichiometry N [6]: 2 and 4 | stoichiometry N [7]: 2 and 4 | stoichiometry N [8]: 2 and 4 | stoichiometry N [9]: 2

B1: 4WJ-DNA (Holliday junction) (structured_DNA)
DNA 1: CCCTATAACCCCTGCATTGAATTCCTGTCTGATAA
DNA 2: GTAGTCGTGATAGGTGCAGGGGTTATAGGG
DNA 3: AACAGTAGCTCTTAATTCGAGCTCGCGCCCTATCACGACTA
DNA 4: TTTATCAGACTGGAATTCAAGCGCGAGCTCGAATAAGAGCTACTGT
binding result [11]: binds | binding result [12]: binds

B2: FITC-labelled histidine-tagged HU-A (protein)
chain: MNKTQLIDVIAEKAELSKTQAKAALESTLAAITESLKEGDAVQLVGFGTFKVNHRAERTGRNPQTGKEIKIAAANVPAFVSGKALKDAVK
percent heterodimers formed after mixing [13]: less than 5%

Continued, values first:

stoichiometry N [4]: 2
Molecule: N-terminally 6xHis-tagged HU-B co-expressed from pET-Duet-1 (from UniProt P0ACF4 1-90) (natural protein)

heterodimer as percent of the total overexpressed HU population [10]: < 5% | percent of the total protein purified [10]: < 10% | heterodimer as percent of the total overexpressed HU population [4]: < 5%
Molecule: Tag-RFP fused to HU-A without a 6xHis tag (RFP-HU-A) (from UniProt P0ACF0 1-90) (natural protein)
